Data taken from US20160159927A1.

Key:
[1] = target: PD1 (over-expressed on cells); assay: cell-cell conjugation: dye-labelled A20-PD-L1 and A20-PD1 cells mixed, double-positive events read by flow cytometry (positive control)
[2] = target: VSIG8 (over-expressed on cells; species not stated) (Homo sapiens (Human)) (UniProt P0DPA2); assay: cell-cell conjugation: dye-labelled A20-VISTA and A20-VSIG8 cells mixed, double-positive events read by flow cytometry
[3] = target: VSIG8 (over-expressed on cells; species not stated) (Homo sapiens (Human)) (UniProt P0DPA2); assay: cell-cell conjugation: two differently dye-labelled lots of A20-VSIG8 cells mixed, double-positive events read by flow cytometry (negative control)

## PD-L1 (over-expressed on A20 cells) (ligand)
[1]
  Q2 (percent double-positive, conjugated cells): 28

## VISTA (over-expressed on A20 cells; species not stated) (from UniProt Q9H7M9 33-311) (ligand)
[2]
  Q2 (percent double-positive, conjugated cells): 11.4

## VSIG8 (over-expressed on cells; species not stated) (from UniProt P0DPA2 22-414) (receptor)
[3]
  Q2 (percent double-positive, conjugated cells): 3.92
